The Kd is the equilibrium constant for the complex coming apart. By IC50 is commonly meant the concentration that gives 50% inhibition. A higher IC50 goes with weaker potency in that assay.

The results in this text go back to the Immune Epitope Database (IEDB).

The target in one assay is HLA-B*08:01. As to the kind of experiment: IEDB peptide-MHC binding, purified MHC/competitive/radioactivity; filed as Kd, often an IC50 or EC50 that approximates it; ≥ and ≤ were set here for values at or beyond the usual limits of such assays.
In a further assay the target is HLA-A*32:01. Described as above.
Another assay deals with HLA-A*30:01. The description is as above.
In a further assay the target is HLA-B*40:01. The description is as above.
The target of another assay is HLA-A*02:01. Nature of the assay: IEDB peptide-MHC binding, purified MHC/competitive/fluorescence; ≥ and ≤ were set here for values at or beyond the usual limits of such assays.
A further assay concerns the target HLA-B*53:01. As to the kind of experiment: IEDB peptide-MHC binding, purified MHC/competitive/radioactivity; filed as Kd, often an IC50 or EC50 that approximates it; ≥ and ≤ were set here for values at or beyond the usual limits of such assays. As to conditions: source organism: Dengue virus 2 Jamaica/1409/1983.
The next assay has as its target HLA-A*23:01. The description is as above.
In a further assay the target is HLA-A*24:02. Described as above.
[1] abbreviates: source organism: Dengue virus 1 Brazil/97-11/1997.
[2] abbreviates: source organism: Dengue virus 2 Jamaica/1409/1983.
The mark [3] stands for this setting: source organism: Dengue virus 4 Philippines/H241/1956.
Where [4] appears, read: source organism: Dengue virus 3 Martinique/1243/1999.
[5] abbreviates: source organism: Vaccinia virus WR.
The mark [6] stands for this setting: source organism: Dengue virus 2 Peru/IQT2913/1996.
Where [7] appears, read: source organism: Dengue virus 4 Dominica/814669/1981.
The mark [8] stands for this setting: source organism: Zaire ebolavirus.

For the sequence KKKQRSGVL, the dissociation constant Kd in the assay with HLA-B*08:01 (setting [1]) was 2290 nM.

Consider KNFAGPVSQ, for which, in the assay with HLA-A*32:01 (setting [2]), the dissociation constant (Kd) is no less than 44900 nM.

Regarding KREDLWCGSL, the equilibrium dissociation constant (Kd) with HLA-B*08:01 (setting [3]) turned out to be 4730 nM.

Regarding KTALLIVSG, in the assay with HLA-A*32:01 (setting [4]), the Kd is 6830 nM.

KTLAPFNFL: the Kd in the assay with HLA-A*30:01 (setting [5]) was 15 nM.

For KTSGYISSF, the Kd with HLA-A*32:01 (setting [5]) was 0.502 nM.

As to KVRPTFAAG, in the assay with HLA-A*30:01 (setting [2]), the Kd was 4.4 nM.

With KWKNRLNAL, in the assay with HLA-B*08:01 (setting [6]), the dissociation constant Kd was 157 nM.

For LARWGSFKK, the dissociation constant (Kd) in the assay with HLA-A*30:01 (source organism: Dengue virus 1 Singapore/S275/1990) is 24.4 nM.

On to LAVVSVSPLL, for which, in the assay with HLA-A*30:01 (setting [6]), the Kd amounted to 11900 nM.

In the case of LEFEALGFMN, in the assay with HLA-B*40:01 (setting [1]), the equilibrium dissociation constant (Kd) was 2660 nM.

Consider LEHGGCVTTM, for which the Kd in the assay with HLA-B*40:01 (setting [4]) was 9.41 nM.

Take LEKRHVLGRL: the Kd in the assay with HLA-B*08:01 (setting [2]) was 7040 nM.

LGLNSRSTSL: in the assay with HLA-B*08:01 (setting [1]), the equilibrium dissociation constant (Kd) is 39.9 nM.

LGRNKKPRL: the dissociation constant (Kd) in the assay with HLA-B*08:01 (setting [4]) stood at 265 nM.

As for LLIHFLLSL, in the assay with HLA-A*32:01 (setting [5]), the dissociation constant Kd was no less than 52800 nM.

With LLLMRTSWA, in the assay with HLA-B*08:01 (setting [4]), the Kd amounted to 10.3 nM.

For the sequence LLNNYTLKI, in the assay with HLA-A*32:01 (setting [5]), the Kd is 25.4 nM.

LQLKGMSYSM: the Kd with HLA-B*08:01 (setting [2]) was 70 nM.

In the assay with HLA-A*02:01 (source organism: Vaccinia virus), LSPETLVGV returned an IC50 of 904 nM.

In the case of LSTRDGEPLM, in the assay with HLA-A*30:01 (setting [3]), the dissociation constant Kd came out at 1630 nM.

Consider MLIPKSYAG, for which, in the assay with HLA-B*08:01 (setting [7]), the Kd was 114 nM.

Regarding MTTEDMLAVW, the Kd with HLA-B*53:01 worked out at 354 nM.

On to MWKQITPEL, for which the dissociation constant Kd with HLA-A*23:01 (setting [2]) stood at 170 nM.

On to NLHYWTTQD, for which, in the assay with HLA-A*02:01 (setting [8]), the IC50 is no less than 124000 nM.

Turning to NPLTLTAAVL, the Kd with HLA-B*08:01 (setting [1]) was determined as 305 nM.

Sequence NSTLEVTEI showed a concentration for half-maximal inhibition (IC50) in the assay with HLA-A*02:01 (source organism: Sudan ebolavirus) of no less than 97400 nM.

With NYILWENNI, the Kd in the assay with HLA-A*23:01 (setting [4]) came to 6.03 nM; with HLA-A*24:02 (setting [4]) it was 2.85 nM.

In turn, PGPDNSTHN gave an IC50 in the assay with HLA-A*02:01 (setting [8]) of no less than 472000 nM.

On to PRRCMKPVIL, for which the Kd with HLA-B*08:01 (setting [2]) amounted to 2470 nM.

Turning to PTVAPPAPV, the half-maximal inhibitory concentration (IC50) with HLA-A*02:01 (setting [8]) was no less than 171000 nM.

As to PWLKNNQFCI, the dissociation constant Kd with HLA-A*23:01 (setting [4]) worked out at 102 nM; with HLA-A*24:02 (setting [4]) it was 224 nM.

For the sequence PYMPSVVETL, the dissociation constant Kd amounted to 32.2 nM with HLA-A*23:01 (setting [1]) and 31.9 nM with HLA-A*24:02 (setting [1]).

With RARYKKMLK, the Kd in the assay with HLA-A*30:01 (setting [5]) was determined as 1.04 nM.

For RLKMDKLTL, in the assay with HLA-B*08:01 (setting [1]), the Kd came to 268 nM.

As for RLKSAVCYK, the Kd in the assay with HLA-A*30:01 (setting [5]) was 0.175 nM.

For the sequence RPLKEKEENL, the dissociation constant Kd in the assay with HLA-B*08:01 (setting [2]) worked out at 1820 nM.

As to RQWFFDLPL, the Kd turned out to be 1.17 nM in the assay with HLA-A*32:01 (setting [4]) and 42 nM with HLA-B*40:01 (setting [4]).

With RQWFFDLPLP, in the assay with HLA-A*30:01 (setting [4]), the dissociation constant (Kd) was 10800 nM.

For the sequence RQWFLDLPLP, in the assay with HLA-A*30:01 (setting [2]), the dissociation constant (Kd) was 11600 nM.

As for RSGAYVSAI, in the assay with HLA-A*32:01 (setting [2]), the Kd worked out at 378 nM.

Consider RTKFQNRAK, for which the dissociation constant Kd in the assay with HLA-A*30:01 (setting [5]) is 0.159 nM.

Regarding RVLLLTPEV, in the assay with HLA-A*30:01 (setting [5]), the Kd is 48.6 nM.

Regarding SGQSPARTS, the IC50 with HLA-A*02:01 (setting [8]) is no less than 234000 nM.

SILGIGTVL displayed an IC50 with HLA-A*02:01 (source organism: Hepatitis C virus genotype 1) of no less than 100000 nM.

As to SLGGVFTSI, the dissociation constant Kd with HLA-A*32:01 (setting [2]) is 294 nM.

STASDTPSA displayed an IC50 in the assay with HLA-A*02:01 (setting [8]) of 12200 nM.

As for STRVEMGEA, the Kd in the assay with HLA-A*30:01 (setting [2]) is 13.9 nM.

As for TEDDLQNEEL, the Kd in the assay with HLA-B*40:01 (setting [7]) came to 136 nM.

On to TEHGTIATI, for which the equilibrium dissociation constant (Kd) in the assay with HLA-B*40:01 (setting [1]) amounted to 80 nM.

For the sequence TIFTLTVAW, in the assay with HLA-A*32:01 (source organism: Dengue virus 3 Sri Lanka/1266/2000), the equilibrium dissociation constant (Kd) came to 157 nM.

As to TKKVRTNAA, the Kd in the assay with HLA-B*08:01 (setting [4]) came to 43.6 nM.

For the sequence TMLSIILVI, the Kd in the assay with HLA-A*32:01 (setting [5]) was 15.6 nM.

VESWEEVPYL: in the assay with HLA-B*40:01 (setting [2]), the dissociation constant Kd came to 41 nM.

As for VFGAIYGAAF, the Kd in the assay with HLA-A*23:01 (setting [2]) was 4.48 nM; in the assay with HLA-A*24:02 (setting [2]), 323 nM.

For the sequence VLYNNVVEF, in the assay with HLA-A*32:01 (setting [5]), the Kd was 1.45 nM.

As for WRLSAQWQKG, the Kd in the assay with HLA-A*32:01 (setting [4]) is no less than 36000 nM.

For WYMWLGARYL, the equilibrium dissociation constant (Kd) was determined as 18.2 nM with HLA-A*23:01 (setting [4]) and 17.8 nM in the assay with HLA-A*24:02 (setting [4]).

On to YPFFRKLVL, for which the dissociation constant (Kd) in the assay with HLA-B*08:01 (setting [5]) turned out to be 5.86 nM.
